In patent US20110150914A1, “COMPOSITIONS AND METHODS FOR DENGUE VIRUS (DV) TREATMENT AND VACCINATION” (priority 2008, published 2011):

These binders were tested against H-2 D^b (mouse; human), P61769.

GMLQGRGPL (modifications not checked) [C36-44] and LAVTIMAIL (modifications not checked) [NS2A145-153] are within 1.5-fold of each other in IC50: 820 nM for the first, 644 nM for the second.

First: RMLINRFTM (modifications not checked) [NS5237-45]
Second: VAFLRFLTI (modifications not checked) [C51-59]
The IC50 of the first is 66-fold lower: 21 nM for the first, 1380 nM for the second. The first is the more potent here.

Compared with RALIFILL (modifications not checked) [M60-67], YSQVNPITL (modifications not checked) [NS4B99-107] is lower in IC50: greater than 2000 nM for the first, 1.3 nM for the second.

Compared with TAIANQATV (modifications not checked) [NS4B66-74], FSLGVLGM (modifications not checked) [NS2A8-15] is 1400-fold higher in IC50: 1.3 nM for the first, 1800 nM for the second. The first is the more potent here.

Binder VAVSFVTLI (modifications not checked) [NS2A36-44] has an IC50 of 997 nM.

These binders were tested against H-2 K^b (mouse; human), P61769.

First: GMLQGRGPL (modifications not checked) [C36-44]
Second: LAVTIMAIL (modifications not checked) [NS2A145-153]
The IC50 of the first is lower: 1340 nM for the first, greater than 2000 nM for the second. The first is the more potent here.

First: RMLINRFTM (modifications not checked) [NS5237-45]
Second: VAFLRFLTI (modifications not checked) [C51-59]
The IC50 of the first is higher: greater than 2000 nM for the first, 20 nM for the second. The second is the more potent here.

Going from RALIFILL (modifications not checked) [M60-67] to YSQVNPITL (modifications not checked) [NS4B99-107], the IC50 rises from 22 nM to 1890 nM (86-fold). The first is the more potent here.

Going from MTMRCIGI (modifications not checked) [E-2-6] to TAIANQATV (modifications not checked) [NS4B66-74], the IC50 rises from 1080 nM to greater than 2000 nM.

Compared with VSWTMKIL (modifications not checked) [E451-458], VAVSFVTLI (modifications not checked) [NS2A36-44] is 38-fold lower in IC50: 458 nM for the first, 12 nM for the second.
